Test results published in paper PMC12209930, “A TATA-box-binding protein binds single-stranded DNA in two modes: To poly(G) tracts and to flexible DNA regions”.
Positions count from the first letter of the chain named. Names and notes keep the numbering of the source.

T1: gTBP (GST-gTBP) (Giardia intestinalis WB C6 (ATCC 50803), UniProt E2RU70 1-200)
T1 sequence: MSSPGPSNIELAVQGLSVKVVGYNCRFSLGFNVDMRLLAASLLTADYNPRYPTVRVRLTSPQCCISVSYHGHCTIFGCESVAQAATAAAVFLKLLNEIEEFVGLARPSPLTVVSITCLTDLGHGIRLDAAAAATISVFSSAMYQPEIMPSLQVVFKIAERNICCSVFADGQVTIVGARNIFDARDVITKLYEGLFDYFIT

B1: dn 14 (ssDNA)
DNA: AAAATTATACCTATGCCGCCGCACTCAAAA
B2: dn 8 (ssDNA)
DNA: AAAACTCCTCCCTTGCCGCCGTTCCCAAAA
B3: dn 1 (ssDNA)
DNA: AAAAAAAAAAAAAAAAAAAAAAAAAAAAAA
B4: polyT(30) (ssDNA)
DNA: TTTTTTTTTTTTTTTTTTTTTTTTTTTTTT
B5: polyA(30) (ssDNA)
DNA: B3 DNA
B6: dn 12 (ssDNA)
DNA: AAAACTCCTCCCTTCCCGTTCTTCCCAAAA
B7: dn 15 (ssDNA)
DNA: AAAAATTATACCTATGCCGCACTCAAAAAA
B8: dn 13 (ssDNA)
DNA: B6 DNA with G18T
B9: Giardia telomere (Gia) (structured_DNA)
DNA: TAGGGTAGGGTAGGGTAGGG
B10: Human-1 telomere (Hu1) (structured_DNA)
DNA: GGGTTAGGGTTAGGGTTAGGGT
B11: Oxytricha telomere (Oxy) (structured_DNA)
DNA: GGGGTTTTGGGGTTTTGGGGTTTTGGGG
B12: H2B-a (ssDNA)
DNA: TAGAAGTGCACAGGGGCGCAGATTTCGGCTGCGGAAGGGGGGAAAAAGCGGGCGGGAAAGAAAT
B13: H4-a (ssDNA)
DNA: GTAGGGCGCAGATTTGGGCTAAAAAAGAAGACGCGGGAAGGGGCAAATAAAAATG
B14: H2B-a R3 (ssDNA)
DNA: CTGCGGTTGGGGGGTTTTAGCGGGCGGGAAAGAAAT
B15: H2B-a L1 (ssDNA)
DNA: TAGAAGTGCACAGGGGGGCAGATTTCGGCTGC
B16: H2B-a Right (R) (ssDNA)
DNA: CTGCGGAAGGGGGGAAAAAGCGGGCGGGAAAGAAAT
B17: H2B-b (ssDNA)
DNA: ATTTCTTTCCCGCCCGCTTTTTCCCCCCTTCCGCAGCCGAAATCTGCGCCCCTGTGCACTTCTA
B18: H4-b (ssDNA)
DNA: CATTTTTATTTGCCCCTTCCCGCGTCTTCTTTTTTAGCCCAAATCTGCGCCCTAC
B19: H4 S2 (ssDNA)
DNA: TACCTCACCTGCTTCTTCTTCGCGTTCCCTCCTCCAGCCCAAACTTGCGCCTCAT
B20: H4 C (ssDNA)
DNA: CCTTCCCGCGTCTTCTTTTTTAGCCCAA
B21: H4 R (ssDNA)
DNA: CTTTTTTAGCCCAAATCTGCGCCCTAC
B22: H4 L (ssDNA)
DNA: CATTTTTATTTGCCCCTTCCCGCGTCTT
B23: H4 S1 (ssDNA)
DNA: ACACCCACCTGCTTCCTCTGCGCCCTTTCCCTCCAGCTTAGACCATCGCGTTCAT
B24: H2B S2 (ssDNA)
DNA: CACCTTCTCAGCGACGCTTCCTCTTTCCCTAGCGACGTGTAACCACGCGATTTGTGCCATC
B25: aGN-a (ssDNA)
DNA: CAATTTGAGCTTCAAAAAATACCGCCAAAAAATGGCAATTCGGTTTTAAAAATG
B26: H2B S1 (ssDNA)
DNA: ACCCCTCCTTCGCTCGCTCCTTCCTTTCTCCCGCAGCCGAGACTTGCGCTTTACGTGATCC
B27: H2B L (ssDNA)
DNA: ATTTCTTTCCCGCCCGCTTTTTCCCCCCTT

Each binder was assayed against T1, gTBP (GST-gTBP) (assay: competition; vs H4-b and H2B-b probes; 10 mM Tris-HCl pH 8.0, 0.15 M NaCl, 0.5 mM TCEP, 5% glycerol, 1 ug/ul BSA, 15 ng/ul salmon sperm DNA, 30 min on ice; probe 0.1 pmol/ul, competitor 200-fold excess). Details: protein: recombinant; tags: N-terminal GST.
B1: binds. B2: binds. B3: no binding. B4: binds. B5: no binding. B6: binds. B7: binds. B8: binds.

What follows are binders tested against T1, gTBP (GST-gTBP) (assay: competition; vs H2B-a and H4-a; annealed in Na+ and K+; 10 mM Tris-HCl pH 8.0, 0.15 M NaCl, 0.5 mM TCEP, 5% glycerol, 1 ug/ul BSA, 15 ng/ul salmon sperm DNA, 30 min on ice; probe 0.1 pmol/ul, competitor 200-fold excess). Details: protein: recombinant; tags: N-terminal GST.
B9: binds. B10: binds. B11: binds.

What follows are binders tested against T1, gTBP (GST-gTBP) (assay: EMSA; A complex; total binding, Hill fit; 10 mM Tris-HCl pH 8.0, 0.15 M NaCl, 0.5 mM TCEP, 5% glycerol, 1 ug/ul BSA, 15 ng/ul salmon sperm DNA, 30 min on ice; probe 0.1 pmol/ul, competitor 200-fold excess). Details: protein: recombinant; tags: N-terminal GST; label: 5'Cy5.
Work on B12 yielded a Kd of 7.2 mM. B13 gave a Kd of 0.5 mM.

These binders were tested against T1, gTBP (GST-gTBP) (assay: competition; vs H2B-a probe; 10 mM Tris-HCl pH 8.0, 0.15 M NaCl, 0.5 mM TCEP, 5% glycerol, 1 ug/ul BSA, 15 ng/ul salmon sperm DNA, 30 min on ice; probe 0.1 pmol/ul, competitor 200-fold excess). Details: protein: recombinant; tags: N-terminal GST.
B14: binds.

What follows are binders tested against T1, gTBP (GST-gTBP) (assay: competition; vs H2B-a probe; better than L; 10 mM Tris-HCl pH 8.0, 0.15 M NaCl, 0.5 mM TCEP, 5% glycerol, 1 ug/ul BSA, 15 ng/ul salmon sperm DNA, 30 min on ice; probe 0.1 pmol/ul, competitor 200-fold excess). Details: protein: recombinant; tags: N-terminal GST.
B15: binds. B16: binds.

Each binder was assayed against T1, gTBP (GST-gTBP) (assay: EMSA; B1+B2 complexes; Hill n about 2; 10 mM Tris-HCl pH 8.0, 0.15 M NaCl, 0.5 mM TCEP, 5% glycerol, 1 ug/ul BSA, 15 ng/ul salmon sperm DNA, 30 min on ice; probe 0.1 pmol/ul, competitor 200-fold excess). Details: protein: recombinant; tags: N-terminal GST; label: 5'Cy5 (probe).
With B17 the Kd was 5 µM. With B18 the Kd was 7 µM.

What follows are binders tested against T1, gTBP (GST-gTBP) (assay: competition; vs H4-b probe; 10 mM Tris-HCl pH 8.0, 0.15 M NaCl, 0.5 mM TCEP, 5% glycerol, 1 ug/ul BSA, 15 ng/ul salmon sperm DNA, 30 min on ice; probe 0.1 pmol/ul, competitor 200-fold excess). Details: protein: recombinant; tags: N-terminal GST.
B19: binds. B20: binds. B21: binds. B22: binds. B23: binds.

What follows are binders tested against T1, gTBP (GST-gTBP) (assay: competition; vs H2B-b probe; less well than H2B S1; 10 mM Tris-HCl pH 8.0, 0.15 M NaCl, 0.5 mM TCEP, 5% glycerol, 1 ug/ul BSA, 15 ng/ul salmon sperm DNA, 30 min on ice; probe 0.1 pmol/ul, competitor 200-fold excess). Details: protein: recombinant; tags: N-terminal GST.
B24: binds.

Each binder was assayed against T1, gTBP (GST-gTBP) (assay: competition; vs H2B-b probe; 10 mM Tris-HCl pH 8.0, 0.15 M NaCl, 0.5 mM TCEP, 5% glycerol, 1 ug/ul BSA, 15 ng/ul salmon sperm DNA, 30 min on ice; probe 0.1 pmol/ul, competitor 200-fold excess). Details: protein: recombinant; tags: N-terminal GST.
B25: no binding. B26: binds. B27: binds.
